Data as given in the DeepSol protein solubility set.

Test: soluble on expression in E. coli; label from the status in PepcDB or PDB records

| Sequence | soluble on expression in E. coli |
| --- | --- |
| ANADNYKNVINRTGAPQYMKDYDYDDHQRFNPFFDLGAWHGHLLPDGPNTMGGFPGVALLTEEYINFMASNFDRLTVWQDGKKVDFTLEAYSIPGALVQKLTAKDVQVEMTLRFATPRTSLLETKITSNKPLDLVWDGELLEKLEAKEGKPLSDKTIAGEYPDYQRKISATRDGLKVTFGKVRATWDLLTSGESEYQVHKSLPVQTEINGNRFTSKAHINGSTTLYTTYSHLLTAQEVSKEQMQIRDILARPAFYLTASQQRWEEYLKKGLTNPDATPEQTRVAVKAIETLNGNWRSPGGAVKFNTVTPSVTGRWFSGNQTWPWDTWKQAFAMAHFNPDIAKENIRAVFSWQIQPGDSVRPQDVGFVPDLIAWNLSPERGGDGGNWNERNTKPSLAAWSVMEVYNVTQDKTWVAEMYPKLVAYHDWWLRNRDHNGNGVPEYGATRDKAHNTESGEMLFTVKKGDKEETQSGLNNYARVVEKGQYDSLEIPAQVAASWESGRDDAAVFGFIDKEQLDKYVANGGKRSDWTVKFAENRSQDGTLLGYSLLQESVDQASYMYSDNHYLAEMATILGKPEEAKRYRQLAQQLADYINTCMFDPTTQFYYDVRIEDKPLANGCAGKPIVERGKGPEGWSPLFNGAATQANADAVVKVMLDPKEFNTFVPLGTAALTNPAFGADIYWRGRVWVDQFWFGLKGMERYGYRDDALKLADTFFRHAKGLTADGPIQENYNPLTGAQQGAPNFSWSAAHLYMLYNDFFRKQ | soluble |
| MAGAGHKEDKSVTKKLIKKESKSDITIYFKQREESEDNNANPINISRSSEKDRVIMLVNGSNGSKKNLASELNVRRSVAQTGAGGVTQPKPLLNDINTKSHAFIQSRLEKMRKGL | not soluble |
| AHHHHHHGSKLKFWREVAIDIISDFETTIMPFFGNPDGGKLVKISPSGDETKLVDKLAEDLILSRITELGVNVVSEEVGVIDNESEYTVIVDPLDGSYNFIAGIPFFALSLAVFKKDKPIYAIIYEPMTERFFEGIPGEGAFLNGKRIKVRKTPDEKPSISFYSRGKGHEIVKHVKRTRTLGAIALELAYLAMGALDGVVDVRKYVRPTDIAAGTIIAKEAGALIKDSAGKDIDISFNATDRLDVIAVNSEELLKTILSLLE | soluble |
| MKGRLLDAVPLSSLTGVGAALSNKLAKINLHTVQDLLLHLPLRYEDRTHLYPIGELLPGVYATVEGEVLNCNISFGGRRMMTCQISDGSGILTMRFFNFSAAMKNSLAAGRRVLAYGEAKRGKYGAEMIHPEYRVQGDLSTPELQETLTPVYPTTEGVKQATLRKLTDQALDLLDTCAIEELLPPELSQGMMTLPEALRTLHRPPPTLQLSDLETGQHPAQRRLILEELLAHNLSMLALRAGAQRFHAQPLSANDTLKNKLLAALPFKPTGAQARVVAEIERDMALDVPMMRLVQGDVGSGKTLVAALAALRAIAHGKQVALMAPTELLAEQHANNFRNWFAPLGIEVGWLAGKQKGKARLAQQEAIASGQVQMIVGTHAIFQEQVQFNGLALVIIDEQHRFGVHQRLALWEKGQQQGFHPHQLIMTATPIPRTLAMTAYADLDTSVIDELPPGRTPVTTVAIPDTRRTDIIDRVHHACITEGRQAYWVCTLIEESELLEAQAAEATWEELKLALPELNVGLVHGRMKPAEKQAVMASFKQGELHLLVATTVIEVGVDVPNASLMIIENPERLGLAQLHQLRGRVGRGAVASHCVLLYKTPLSKTAQIRLQVLRDSNDGFVIAQKDLEIRGPGELLGTRQTGNAEFKVADLLRDQAMIPEVQRLARHIHERYPQQAKALIERWMPETERYSNA | soluble |
| MGIPILKLGECLLISIQSELDDHTAVEFQEDLLAKIHETSARGVVIDITSIDFIDSFIAKILGDVVSMSKLMGAKVVVTGIQPAVAITLIELGITFSGVLSAMDLESGLEKLKQELGE | not soluble |
| VTYEEEAVPAPVRGRLEVLSDLLYVASPDRAMVFTRTKAETEEIAQGLLRLGHPAQALHGDMSQGERERVMGAFRQGEVRVLVATDVAARGLDIPQVDLVVHYRMPDRAEAYQHRSGRTGRAGRGGRVVLLYGPRERRDVEALERAVGRRFKRVNPPTPEEVLEAKWRHLLARLARVPEKDYRLYQDFAGRLFAEGRVEVVAALLALLLGGAPAERSLLTGEEGWRTYKATGPRLSLPRLVALLKGQGLEVGKVAEAEGGFYVDLRPEARPEVAGLRLEPARRVEGLLEIPSRTRRPARA | soluble |
| MNYWLMKSEPDEFSIEDLKARPNQTEPWFGIRNYQARNYMRDAMQIGDKVFFYHSSCKVPGIVGIAEVVTNAYPDSTAFDPESTYFDPKSDPSNPRWLRVDIRFVEQFKEIIPLSLIKSLPQLADMYLVSKGSRLSIQPVTAEQWQAVLMLSRLEHHHHHH | soluble |
| MRIAVIDYDKCNPDKCGHFLCERVCPVNRMGGEAIIIDEENNRPIIQEASCTGCGICVHKCPFKAISIVNLPEQLEEDCVHRYGVNAFVLYRLPVVKDGMVVGIVGPNGTGKTTAVKILAGQLIPNLCCDNDSWDDVIKAFRGSELQNYFEKLKNGEIKPVVKPQYVDLLPKAVKGKVGELLKKVDETGKFEEIVKVLELEKVLEREIDQLSGGELQRVAIAAAILRKAHFYFFDEPSSYLDIRQRLNVARVIRRLADEGKAVLVVEHDLAVLDYLSDIVHIVYGEPGVYGIFSQPKGTRNGINEFLQGYLKDENVRFRPYEIKFTKLSERVEVERETLVEYPRLVKDYGSFKLEVEPGEIRKGEVIGIVGPNGIGKTTFVKMLAGVEEPTEGKVEWDLTVAYKPQYIKAEYEGTVYDLLSKIDASKLNSNFYKTELLKPLGIIDLYDKNVNELSGGELQRVAIAATLLRDADIYLLDEPSAYLDVEQRLATSRAIRHLMEKNEKTALVVEHDVLMIDYVSDRLIVFEGEPSKYGKALPPMGMREGMNRFLASVGITFRRDPDTGRPRANKEGSVKDREQKEKGEYYYTD | soluble |
| MHHHHHHSSGRENLYFQGTGQDALVLGFDWGKFLKDHSYKAAPVSCFKHVPLYDQWEDVMKGMKVEVLNSDAVLPSRVYWIASVIQTAGYRVLLRYEGFENDASHDFWCNLGTVDVHPIGWCAINSKILVPPRTIHAKFTDWKGYLMKRLVGSRTLPVDFHIKMVESMKYPFRQGMRLEVVDKSQVSRTRMAVVDTVIGGRLRLLYEDGDSDDDFWCHMWSPLIHPVGWSRRVGHGIKMSERRSDMAHHPTFRKIYCDAVPYLFKKVRAVYTEGGWFEEGMKLEAIDPLNLGNICVATVCKVLLDGYLMICVDGGPSTDGLDWFCYHASSHAIFPATFCQKNDIELTPPKGYEAQTFNWENYLEKTKSKAAPSRLFNMDCPNHGFKVGMKLEAVDLMEPRLICVATVKRVVHRLLSIHFDGWDSEYDQWVDCESPDIYPVGWCELTGYQLQPPVAAEPATPLKAKEATKKKKKQ | soluble |
| HMDPDELPLDEHCERLPYDASKWEFPRDRLNLGKPLGRGAFGQVIEADAFGIDKTATCRTVAVKMLKEGATHSEHRALMSELKILIHIGHHLNVVNLLGACTKPGGPLMVIVEFCKFGNLSTYLRSKRNEFVPYKTPEDLYKDFLTLEHLICYSFQVAKGMEFLASRKCIHRDLAARNILLSEKNVVKICDFGLARDIYKDPDYVRKGDARLPLKWMAPETIFDRVYTIQSDVWSFGVLLWEIFSLGASPYPGVKIDEEFCRRLKEGTRMRAPDYTTPEMYQTMLDCWHGEPSQRPTFSELVEHLGNLLQANAQQD | soluble |
| MSLGGANGKSGLRIWRNARLATMADGVAGLGIVEKGAIATRDGLIIYAGAEASMPALAGPGAETVDCEGRWITPGLIDCHTHLVYAGNRANEFEMRLAGATYEEVARAGGGIVSSVKSLRAANEDELVAQTLPRLDALMAEGVTTVEVKSGYGLDLDNEKKSLRAARRLANERPVTIRTTCLAAHALPPEAKGDKEAFVDLVAGTILPGVAAEKLADAVDGFCEGIAFSPEQIARVFDKARALGLPVKLHADQLSNLHGAALAASYGALSADHLEYTDEAGAAAMAKAGTVATILPGAYYFIRETKKPPVDLFRRHGVKMAVATDSNPGTSPLTSLLLTMNMAATLFGLTVDECLAGVTREAARALGLLDKTGTLEAGKSADLAIWDIERPAELVYRMGFNPLHARIWRGQGSLSAPNTQPAFTIRTAKGIITITTDPNSSSVDKLAAALEHHHHHH | soluble |
| MEETEFVPHKLTELRVGTLYGPQIYMTSGQGNSGFDYDMAVLFAEYLDVPLKMVPYTNLAELYDALKKNEIDIIAAGMTETPARREHFRLGPPLYRVNQVLVYREGMPAPKDISDLKGKITVIADSSFVETLTQLQKRHPTLVWDQVTDKDNEELLTMIANKEIDYTIADSSSVQINRRYLPVLRSGLVLEEKLNVVWLLPPTHSDGLMSQLLAFWHQEKLAGTLDHLNEKYFGHVKRFDYIDTRAFLRAIETVLPRYRQHFETHAGDLDWRKLAATSYQESHWNPNARSPTGVRGMMMLTQPTAKEIGITNRLDAEESIRGGAAYLRDMINRLPESIPESQRMWFALASYNIGYAHVEDARKLAESMELNPNAWQDLKKVLPLLQKRKYYQKTRYGYARGSEAVHYVDSIRRYYDTLVWVDNQSKQQNSEEVAPSDLTAEETPVPAPGTLSPDKPKLEHHHHHH | soluble |
| MSQLPGLSRETRESIAMYHLRVPQTEEELERYYQFRWEMLRKPLHQPKGSERDAWDAMAHHQMVVDEQGNLVAVGRLYINADNEASIRFMAVHPDVQDKGLGTLMAMTLESVARQEGVKRVTCSAREDAVEFFAKLGFVNQGEITTPTTTPIRHFLMIKPVATLDDILHRGDWCAQLQQAWYEHIPLSEKMGVRIQQYTGQKFITTMPETGNQNPHHTLFAGSLFSLATLTGWGLIWLMLRERHLGGTIILADAHIRYSKPISGKPHAVADLGALSGDLDRLARGRKARVQMQVEIFGDETPGAVFEGTYIVLPAKPFGPYEEGGNEEELEHHHHHH | not soluble |
| MSLKTKLIVVLGPTAVGKTALGIKLAQQFHGEIISGDSQQVYRKLDIGTAKATAAEQAAVPHHLIDVREVDENYSAFDFVQEATKEIANICARGYLPIIVGGTGLYLQSLLEGYHLGGQVDHEAVLAYRRELETLSDTELSQLVETKQIVMTEPNRRRLMRSLELHKFSQGVQNQGSPYDVLLIGLNDNRQDLYERINARVDKMMAAGLLDEAKWLYDNYPHAQATRGIGYKELFPYFAGDIGLEEAVEKIKQNTRRFAKRQLTWFKNRMAVSFYSVSDSDYKGKINQAVVDFLRNEGHHHHHH | soluble |
| MSLGISEAFDLRPDYIISVIKDTKAKLVGFQFPEGLKRKGPELAKIVEEATGAEVLISGDPCFGACDLDRTLLDHVELLFHFGHAELEDVRLSDKVYFIETRSSVDVRPVVEKALPGLKGEKIGLITTVQHVHKLHDVCRVLEAGGKTCVIGRGDSRLAYAGQVLGCNFSAARDEVCDEYLYIGSGDFHPLGVALSTKKRVLAADPFSGEVREVDPSRILRQRSAVIAKSLDAQVFGIIVSSKNGQMRMELASSLKEIAKKHGKEAHLILIDLVTPDQLLQFKVDAFVNTACPRLAVDEVGRFPSPMLTPQEFEIVLGEREWEKLVLDEITEEPVLEHHHHHH | soluble |
| MLSMLSKISFTRPQAQELLRRLQAPRHLLQVVLGPRQVGKTTLALQVAQTCGLPYHYASADEPTLKEAPWLETQWTLARRLAQAGEALLVLDEAQKVLGWSETLKRLWDEDTLRGLPLKVVLLGSSPLLLQKGLSESLAGRFEVLHLPHWSFYEMERAFGYTLPEYLYFGGYPGAAPLREEPERFARYIKDALLETTLGRDILLHTRVEKPALLRRVLELGLLYSGQVLSYTKMLGQLQDAGNTVTLAYYLELLEGAGLLGALQKYAAEPIRRRASSPKLLALNTGLITAVLGLSPEEVWEDAALMGRLVETAVGAHLLAHAHQGGFEVYYWRERDQEVDFVLQKGKRLLALEVKSAPSKRTQGLEAFTRTFGAKGLLVGPEGVPLEAFLRDNPLNFL | soluble |
